Source: PMC7043065 (Cell reports, 2020)

Molecular target: C-X-C motif chemokine 12 (CXCL12) (mouse (endogenous in BM-MSC of C57BL/6 …, UniProt P40224 22-93))
Assay: cross-linking + co-IP

Sequence of C-X-C motif chemokine 12 (CXCL12) (mouse (P40224 22-93): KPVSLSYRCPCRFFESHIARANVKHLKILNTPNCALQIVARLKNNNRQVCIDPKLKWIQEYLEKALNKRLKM

B1: chemokine ligand 2 (CCL2) (natural protein)
chain: not shown
With B1 the “molar interaction ratio of CXCL12/CCL2” value was > 1.
